Legend:
[1] = biological target: recombinant bank vole (BV) PrP(90–231), I109 natural polymorph (bank vole) (UniProt Q8VHV5); test: SEC
[2] = biological target: recombinant bank vole (BV) PrP(90–231), I109 natural polymorph (bank vole) (UniProt Q8VHV5); test: NMR diffusion

## recombinant bank vole (BV) PrP(90–231), I109 natural polymorph (from UniProt Q8VHV5 90-231) (domain or fragment)
[1]
  stoichiometry N: 12
[2]
  stoichiometry N: 16

From doi:10.1101/2025.10.11.681810
